The values below come from doi:10.1101/2020.08.31.274639.

The target of the assay is SARS-CoV-2 main protease 3CLpro (SARS-CoV-2). The experiment in a line: crystal structure.

Turning to “SARS-CoV-2 main protease 3CLpro (enzyme)”, the stoichiometry N (usually the number of molecules, sites or subunits per partner or assembly) is 2.
